Results: patent US9708383 (Novo Nordisk, dated 2017)
*1 amine or outer side, *2 acyl side, *3 side chain or, on linkers, in order; H or OH if unused. Where no end group is shown, it is not given here. Side-chain parts run from the residue outwards. [ ]: non-standard residue; d: D form. The star is where a group is joined. Decanoyl(10-(4-HOOC-PhO)) = O=C(O)c1ccc(OCCCCCCCCCC(=O)*)cc1; C18 diacid = O=C(O)CCCCCCCCCCCCCCCCC(=O)*; γGlu = O=C(O)[C@H](CCC(=O)[*:2])N[*:1]; Desaminohistidyl = O=C(CCc1c[nH]cn1)*; C12 diacid = O=C(O)CCCCCCCCCCC(=O)*; 13‑carboxytridecanoyl = C14 diacid; AEEA = NCCOCCOCC(=O)O; Aib = CC(C)(N)C(=O)O

Experiments:
[1] = target: T1, human GLP-1 receptor (human, UniProt P43220 24-463); experiment: SPA, 2.0% vs 0.005% HSA
T1 construct: whole, on cells; Used as purified membranes of the transfected hamster cells, not whole cells; also called hGLP-1

[2] = target: T1, human GLP-1 receptor; experiment: SPA, displacement of 125I-GLP-1(7-36)NH2, 0.005% HSA

Binder | ratio IC50 high HSA/IC50 low HSA [1] | IC50 [2] [nM]
[Desaminohistidyl][Aib]EGTFTSDVSK([AEEA-AEEA-γGlu-C12 diacid])YLEEQAVREFIAK([AEEA-AEEA-γGlu-C12 diacid])LVG [GLP-1 derivative of Example 22: [Imp7,Aib8,Lys18,Glu22,Val25,Arg26,Lys31,Gly34]-GLP-1-(7-34)-peptide] | > 1 | < 1000
[Desaminohistidyl]AEGTFTSDVSK([AEEA-AEEA-13‑carboxytridecanoyl])YLEEQAARK([AEEA-AEEA-13‑carboxytridecanoyl])FIAHLVG [GLP-1 derivative of Example 31: [Imp7,Lys18,Glu22,Arg26,Lys27,His31,Gly34]-GLP-1-(7-34)-peptide] | > 1 | < 1000
H[Aib]EGTFTSDVSK([AEEA-AEEA-γGlu-C12 diacid])YLEEQAAK([AEEA-AEEA-γGlu-C12 diacid])EFIAWLVQGRG [GLP-1 derivative of Example 39: [Aib8,Lys18,Glu22,Gln34]-GLP-1-(7-37)-peptide] | > 1 | < 1000
H[Aib]EGTFTSDVSK([AEEA-AEEA-AEEA-AEEA-Decanoyl(10-(4-HOOC-PhO))])YLEEQAAK([AEEA-AEEA-AEEA-AEEA-Decanoyl(10-(4-HOOC-PhO))])EFIAWLVQGRG [GLP-1 derivative of Example 71: [Aib8,Lys18,Glu22,Gln34]-GLP-1-(7-37)-peptide] | > 1 | < 1000
H[Aib]EGTFTSDVSK([γGlu-AEEA-AEEA-13‑carboxytridecanoyl])YLEEQAAK([γGlu-AEEA-AEEA-13‑carboxytridecanoyl])EFIAWLVQGRG [GLP-1 derivative of Example 65: [Aib8,Lys18,Glu22,Gln34]-GLP-1-(7-37)-peptide] | > 1 | < 1000
H[Aib]EGTFTSDVSK([AEEA-AEEA-γGlu-C18 diacid])YLEEQAAK([AEEA-AEEA-γGlu-C18 diacid])EFIAWLVQGRG [GLP-1 derivative of Example 23: [Aib8,Lys18,Glu22,Gln34]-GLP-1-(7-37)-peptide] | > 1 | < 1000
H[Aib]EGTFTSDVSK([γGlu-AEEA-AEEA-13‑carboxytridecanoyl])YLEEQAVREFIAK([γGlu-AEEA-AEEA-13‑carboxytridecanoyl])LVG [GLP-1 derivative of Example 36: [Aib8,Lys18,Glu22,Val25,Arg26,Lys31,Gly34]-GLP-1-(7-34)-peptide] | > 1 | < 1000
H[Aib]EGTFTSDVSK([AEEA-AEEA-γGlu-Decanoyl(10-(4-HOOC-PhO))])YLEEQAVREFIAK([AEEA-AEEA-γGlu-Decanoyl(10-(4-HOOC-PhO))])LVG [GLP-1 derivative of Example 19: [Aib8,Lys18,Glu22,Val25,Arg26,Lys31,Gly34]-GLP-1-(7-34)-peptide] | > 1 | < 1000
H[Aib]EGTFTSDVSK([AEEA-AEEA-γGlu-13‑carboxytridecanoyl])YLEEQAVREFIAK([AEEA-AEEA-γGlu-13‑carboxytridecanoyl])LVG [GLP-1 derivative of Example 5: [Aib8,Lys18,Glu22,Val25,Arg26,Lys31,Gly34]-GLP-1-(7-34)-peptide] | > 1 | < 1000
H[Aib]EGTFTSDVSK([AEEA-AEEA-γGlu-13‑carboxytridecanoyl])YLEEQAAREFIAK([AEEA-AEEA-γGlu-13‑carboxytridecanoyl])LVG [GLP-1 derivative of Example 16: [Aib8,Lys18,Glu22,Arg26,Lys31,Gly34]-GLP-1-(7-34)-peptide] | > 1 | < 1000
H[Aib]EGTFTSDVSK([AEEA-AEEA-γGlu-13‑carboxytridecanoyl])YLEEQAVREFIEK([AEEA-AEEA-γGlu-13‑carboxytridecanoyl])LVG [GLP-1 derivative of Example 6: [Aib8,Lys18,Glu22,Val25,Arg26,Glu30,Lys31,Gly34]-GLP-1-(7-34)-peptide] | > 1 | < 1000
H[Aib]EGTFTSDVSK([AEEA-AEEA-γGlu-C12 diacid])YLEEQAVRK([AEEA-AEEA-γGlu-C12 diacid])FIAHLVG | > 1 | < 1000
H[Aib]EGTFTSDVSK([AEEA-AEEA-γGlu-13‑carboxytridecanoyl])YLEEQAVRHFIAK([AEEA-AEEA-γGlu-13‑carboxytridecanoyl])LVG | > 1 | < 1000
H[Aib]EGTFTSDVSK([AEEA-AEEA-γGlu-13‑carboxytridecanoyl])YLEERAVREFIAK([AEEA-AEEA-γGlu-13‑carboxytridecanoyl])LVG | > 1 | < 1000
H[Aib]EGTFTSDVSK([AEEA-AEEA-γGlu-C12 diacid])YLEEQAVHEFIAK([AEEA-AEEA-γGlu-C12 diacid])LVG [GLP-1 derivative of Example 27: [Aib8,Lys18,Glu22,Val25,His26,Lys31,Gly34]-GLP-1-(7-34)-peptide] | > 1 | < 1000
H[Aib]EGTFTSDVSK([AEEA-AEEA-γGlu-13‑carboxytridecanoyl])YLEEQAVHEFIAK([AEEA-AEEA-γGlu-13‑carboxytridecanoyl])LVG [GLP-1 derivative of Example 7: [Aib8,Lys18,Glu22,Val25,His26,Lys31,Gly34]-GLP-1-(7-34)-peptide] | > 1 | < 1000

Binder | ratio IC50 high HSA/IC50 low HSA [1] | IC50 [2] [nM]
H[Aib]EGTFTSDVSK([AEEA-AEEA-γGlu-13‑carboxytridecanoyl])YLEEQAVRK([AEEA-AEEA-γGlu-13‑carboxytridecanoyl])FIAHLVG | > 1 | < 1000
H[Aib]EGTFTSDVSK([AEEA-AEEA-γGlu-13‑carboxytridecanoyl])YLEEQAVREFIAK([AEEA-AEEA-γGlu-13‑carboxytridecanoyl])LV-NH2 (Second site printed without its number (N^ε-)) [GLP-1 derivative of Example 37: [Aib8,Lys18,Glu22,Val25,Arg26,Lys31]-GLP-1-(7-33)-peptide amide] | > 1 | < 1000
H[Aib]EGTFTSDVSK([AEEA-AEEA-γGlu-C12 diacid])YLEEQAVREFIAK([AEEA-AEEA-γGlu-C12 diacid])LVG [GLP-1 derivative of Example 8: [Aib8,Lys18,Glu22,Val25,Arg26,Lys31,Gly34]-GLP-1-(7-34)-peptide] | > 1 | < 1000
H[Aib]EGTFTSDVSK([AEEA-AEEA-γGlu-2‑phenylcyclopropanecarbonyl])YLEEQAAK([AEEA-AEEA-γGlu-2‑phenylcyclopropanecarbonyl])EFIAWLVQGRG [GLP-1 derivative of Example 79: [Aib8,Lys18,Glu22,Gln34]-GLP-1-(7-37)-peptide] | > 1 | < 1000
H[Aib]EGTFTSDVSK([AEEA-AEEA-γGlu-13‑carboxytridecanoyl])YLEEQAVRLFIAWLVK([AEEA-AEEA-γGlu-13‑carboxytridecanoyl]) [GLP-1 derivative of Example 63: [Aib8,Lys18,Glu22,Val25,Arg26,Leu27]-GLP-1-(7-34)-peptide] | > 1 | < 1000
H[Aib]EGTFTSDVSK([AEEA-γGlu-AEEA-13‑carboxytridecanoyl])YLEEQAAK([AEEA-γGlu-AEEA-13‑carboxytridecanoyl])EFIAWLVQGRG [GLP-1 derivative of Example 86: [Aib8,Lys18,Glu22,Gln34]-GLP-1-(7-37)-peptide] | > 1 | < 1000
[Desaminohistidyl]AEGTFTSDVSK([AEEA-AEEA-γGlu-Decanoyl(10-(4-HOOC-PhO))])YLEEQAARK([AEEA-AEEA-γGlu-Decanoyl(10-(4-HOOC-PhO))])FIAHLVG [GLP-1 derivative of Example 33: [Imp7,Lys18,Glu22,Arg26,Lys27,His31,Gly34]-GLP-1-(7-34)-peptide] | > 1 | < 1000
H[Aib]EGTFTSDVSK([AEEA-AEEA-13‑carboxytridecanoyl])YLEEQAAK([AEEA-AEEA-13‑carboxytridecanoyl])EFIAWLVQGRG [GLP-1 derivative of Example 84: [Aib8,Lys18,Glu22,Gln34]-GLP-1-(7-37)-peptide] | > 1 | < 1000
H[Aib]EGTFTSDVSK([γGlu-AEEA-AEEA-Decanoyl(10-(4-HOOC-PhO))])YLEEQAAK([γGlu-AEEA-AEEA-Decanoyl(10-(4-HOOC-PhO))])EFIAWLVQGRG [GLP-1 derivative of Example 82: [Aib8,Lys18,Glu22,Gln34]-GLP-1-(7-37)-peptide] | > 1 | < 1000
H[Aib]EGTFTSDVSK([AEEA-AEEA-AEEA-AEEA-γGlu-Decanoyl(10-(4-HOOC-PhO))])YLEEQAAK([AEEA-AEEA-AEEA-AEEA-γGlu-Decanoyl(10-(4-HOOC-PhO))])EFIAWLVQGRG [GLP-1 derivative of Example 69: [Aib8,Lys18,Glu22,Gln34]-GLP-1-(7-37)-peptide] | > 1 | < 1000
H[Aib]EGTFTSDVSK([AEEA-AEEA-Decanoyl(10-(4-HOOC-PhO))])YLEEQAAK([AEEA-AEEA-Decanoyl(10-(4-HOOC-PhO))])EFIAWLVQGRG [GLP-1 derivative of Example 85: [Aib8,Lys18,Glu22,Lys26,Gln34]-GLP-1-(7-37)-peptide] | > 1 | < 1000
[Desaminohistidyl]AEGTFTSDVSK([γGlu-AEEA-AEEA-13‑carboxytridecanoyl])YLEEQAARK([γGlu-AEEA-AEEA-13‑carboxytridecanoyl])FIAHLVG [GLP-1 derivative of Example 32: [Imp7,Lys18,Glu22,Arg26,Lys27,His31,Gly34]-GLP-1-(7-34)-peptide] | > 1 | < 1000
[Desaminohistidyl][Aib]EGTFTSDVSK([AEEA-AEEA-γGlu-13‑carboxytridecanoyl])YLEEQAVREFIAK([AEEA-AEEA-γGlu-13‑carboxytridecanoyl])LVG [GLP-1 derivative of Example 21: [Imp7,Aib8,Lys18,Glu22,Val25,Arg26,Lys31,Gly34]-GLP-1-(7-34)-peptide] | > 1 | < 1000
H[Aib]EGTFTSDVSK([AEEA-γGlu-13‑carboxytridecanoyl])YLEEQAVREFIAK([AEEA-γGlu-13‑carboxytridecanoyl])LVG [GLP-1 derivative of Example 20: [Aib8,Lys18,Glu22,Val25,Arg26,Lys31,Gly34]-GLP-1-(7-34)-peptide] | > 1 | < 1000
H[Aib]EGTFTSDVSK([AEEA-AEEA-γGlu-13‑carboxytridecanoyl])YLEEQAAK([AEEA-AEEA-γGlu-13‑carboxytridecanoyl])EFIAWLVQGRG [GLP-1 derivative of Example 80: [Aib8,Lys18,Glu22,Gln34]-GLP-1-(7-37)-peptide] | > 1 | < 1000
